{"source": "patent US20230391828", "tested_on": "T1, G3-6, Ac-cyclo(4,11)-EWWZIKEIQRXRRA-NH2", "T1 sequence": "EWWXIKEIQRXRRA"}
{"substance": "recombinant human APC/C (Strep-tagged APC4), expressed in SF9 cells", "values": [{"measurement": "in vitro APC/C ubiquitination assay with different E2 enzymes (UBE2C, UBE2D, UBE2S), Ub-cyclin B1 substrate, 100 µM, 40 min", "value": "The lead molecule G3-6 (SEQ. ID. NO. 33) inhibits APC/C in vitro independently on employed E2 enzymes."}]}
